Test [1] has as its target T1, Scl-70 (UniProt P11387 1-765).
T1 sequence: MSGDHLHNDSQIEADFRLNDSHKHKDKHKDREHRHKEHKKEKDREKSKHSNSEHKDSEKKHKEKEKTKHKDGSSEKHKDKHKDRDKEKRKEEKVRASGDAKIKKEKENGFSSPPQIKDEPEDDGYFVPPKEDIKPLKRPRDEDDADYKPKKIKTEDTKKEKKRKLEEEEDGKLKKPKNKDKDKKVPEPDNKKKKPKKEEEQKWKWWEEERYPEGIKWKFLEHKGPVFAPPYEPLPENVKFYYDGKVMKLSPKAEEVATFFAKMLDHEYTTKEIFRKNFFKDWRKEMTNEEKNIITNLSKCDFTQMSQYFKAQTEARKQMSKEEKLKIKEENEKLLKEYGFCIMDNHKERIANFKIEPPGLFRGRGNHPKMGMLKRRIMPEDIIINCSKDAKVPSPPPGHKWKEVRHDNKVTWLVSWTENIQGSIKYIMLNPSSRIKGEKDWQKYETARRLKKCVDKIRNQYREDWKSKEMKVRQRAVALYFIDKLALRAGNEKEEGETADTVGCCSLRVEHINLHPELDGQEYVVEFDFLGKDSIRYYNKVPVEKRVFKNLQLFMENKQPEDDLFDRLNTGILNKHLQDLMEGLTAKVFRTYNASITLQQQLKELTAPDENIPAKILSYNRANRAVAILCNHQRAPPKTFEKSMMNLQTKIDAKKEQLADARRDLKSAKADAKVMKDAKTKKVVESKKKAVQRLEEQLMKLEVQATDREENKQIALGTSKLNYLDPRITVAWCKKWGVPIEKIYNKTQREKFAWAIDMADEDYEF
The test can be described thus: AtheNA, Ab 12.5 ug/ml.
Description: (§1) AtheNA Multi-Lyte ANA Plus Test System is one such assay. This is luminex-based assay, which is also used to screen patient sera.

In test [2] the target is T2, SSA.
T2 construct: also called SSA (Ro)
Description: AtheNA, Ab 12.5 ug/ml.
Description: as §1

For test [3], the target named is T3, Sm (Smith antigen).
T3 construct: Protein complex
The test can be described thus: AtheNA, Ab 12.5 ug/ml.
Description: as §1

Test [4] concerns the target T4, Histones.
T4 construct: Mixture of proteins
Description: AtheNA, Ab 50 ug/ml.
Description: as §1

In test [5] the target is T1, Scl-70. Description: AtheNA, Ab 50 ug/ml.
Description: as §1
The target of test [6] is T2, SSA. The test can be described thus: AtheNA, Ab 50 ug/ml.
Description: as §1
The target of test [7] is T5, RNP (ribonucleoprotein).
T5 construct: Protein-RNA complex
Description: AtheNA, Ab 50 ug/ml.
Description: as §1

For another test, the target named is T6, SSB (UniProt P05455 1-408).
T6 sequence: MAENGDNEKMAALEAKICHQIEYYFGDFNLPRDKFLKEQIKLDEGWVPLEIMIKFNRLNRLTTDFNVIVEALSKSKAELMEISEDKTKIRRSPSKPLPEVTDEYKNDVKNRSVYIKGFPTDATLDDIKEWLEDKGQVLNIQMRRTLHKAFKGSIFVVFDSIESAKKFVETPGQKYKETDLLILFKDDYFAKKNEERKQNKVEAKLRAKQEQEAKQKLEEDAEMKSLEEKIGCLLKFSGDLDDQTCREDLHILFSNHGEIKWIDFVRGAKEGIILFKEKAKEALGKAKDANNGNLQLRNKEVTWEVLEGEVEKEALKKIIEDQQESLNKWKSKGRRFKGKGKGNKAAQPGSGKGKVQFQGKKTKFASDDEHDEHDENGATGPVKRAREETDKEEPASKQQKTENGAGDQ
The test can be described thus: AtheNA, Ab 50 ug/ml.

In test [8] the target is T3, Sm (Smith antigen). The test can be described thus: AtheNA, Ab 50 ug/ml.
Description: as §1
In test [9] the target is CH505 TF loop D mutant M8 Env (pseudovirus) (HIV-1). The test can be described thus: cell-based or functional assay.
Test [10] deals with T4, Histones. Description: AtheNA, Ab 25 ug/ml.
A further test addresses T7, Centromere B (UniProt P07199 1-599).
T7 construct: also called Cent B
T7 sequence: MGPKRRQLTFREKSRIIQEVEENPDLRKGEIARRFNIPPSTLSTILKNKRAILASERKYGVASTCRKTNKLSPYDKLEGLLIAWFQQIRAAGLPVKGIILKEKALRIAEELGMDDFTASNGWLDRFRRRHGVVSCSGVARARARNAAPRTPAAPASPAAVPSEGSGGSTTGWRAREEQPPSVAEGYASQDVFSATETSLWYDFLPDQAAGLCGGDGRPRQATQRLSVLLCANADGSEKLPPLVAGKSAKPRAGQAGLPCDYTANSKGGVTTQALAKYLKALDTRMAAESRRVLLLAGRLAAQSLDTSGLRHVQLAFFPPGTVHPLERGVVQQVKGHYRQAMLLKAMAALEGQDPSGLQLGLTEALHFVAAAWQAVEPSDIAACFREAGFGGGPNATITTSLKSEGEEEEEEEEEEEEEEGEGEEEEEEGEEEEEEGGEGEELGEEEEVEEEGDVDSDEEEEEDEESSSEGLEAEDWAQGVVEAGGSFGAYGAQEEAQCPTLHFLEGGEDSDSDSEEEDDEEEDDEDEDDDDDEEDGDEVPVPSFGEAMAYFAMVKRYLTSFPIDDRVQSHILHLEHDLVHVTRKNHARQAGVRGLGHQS
The test can be described thus: AtheNA, Ab 25 ug/ml.

In test [11] the target is T2, SSA. The test can be described thus: AtheNA, Ab 25 ug/ml.
Another test concerns the target T8, Jo-1 (UniProt P12081 1-509).
T8 sequence: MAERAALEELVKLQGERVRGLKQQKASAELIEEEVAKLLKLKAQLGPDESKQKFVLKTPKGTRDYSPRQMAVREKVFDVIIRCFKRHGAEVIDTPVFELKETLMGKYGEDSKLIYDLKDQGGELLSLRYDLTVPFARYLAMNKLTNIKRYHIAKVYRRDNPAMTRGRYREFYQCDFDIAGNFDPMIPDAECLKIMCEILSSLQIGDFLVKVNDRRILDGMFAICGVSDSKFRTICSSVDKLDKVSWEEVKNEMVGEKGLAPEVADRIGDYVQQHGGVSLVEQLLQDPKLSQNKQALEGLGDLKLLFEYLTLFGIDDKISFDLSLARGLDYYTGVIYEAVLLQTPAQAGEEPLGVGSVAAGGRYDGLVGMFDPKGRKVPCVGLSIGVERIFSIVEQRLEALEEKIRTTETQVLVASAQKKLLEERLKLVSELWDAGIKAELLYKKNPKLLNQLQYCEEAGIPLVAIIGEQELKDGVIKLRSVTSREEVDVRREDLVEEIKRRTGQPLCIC
The test can be described thus: AtheNA, Ab 25 ug/ml.

The target of test [12] is T5, RNP (ribonucleoprotein). Description: AtheNA, Ab 25 ug/ml.
Test [13] addresses T3, Sm (Smith antigen). The test can be described thus: AtheNA, Ab 25 ug/ml.

Description for SSB: as §1

B1: CH493 (antibody, V domains shown)
VH: QVRLLQYGGGVKRPGASMTISCVASGYNFNDYYIHWVRQAPGQGLELMGWIDPSGGRTDYAGAFGDRVSMYRDKSMNTLYMDLRSLRSGDTAMYYCVRNVGTAGSLLHYDHWGLGVMVTVSS
VL: EIVLTQSPATLSVSPGERVTLSCRASQSVRNNLAWYRQKRGQAPRLLIYGASTRATGIPARFSGSGSGTEFTLTISSMQSEDFAVYYCQQYNNWWTFGQGTKVEIK
notes: also called CH235.9; DH493
For B1, the AtheNA signal in the test with Scl-70 [1] was found to be 26; with SSA [2], 54; with Sm (Smith antigen) [3] it was 42; with Histones [4] it was 166; in the test with Scl-70 [5], 36; with SSA [6] it was 155. The AtheNA signal with RNP (ribonucleoprotein) [7] came to 69; with SSB, 70; in the test with Sm (Smith antigen) [8], 37. Further, the “neutralization IC50, TZM-bl pseudovirus assay” value in test [9] was 0.66 µg/mL.

B2: CH557 (antibody, V domains shown)
VH: QVRLAQYGGGVKRLGATMTLSCVASGYTFNDYYIHWVRQAPGQGFELLGYIDPANGRPDYAGALRERLSFYRDKSMETLYMDLRSLRYDDTAMYYCVRNVGTAGSLLHYDHWGSGSPVIVSS
VL: EIVLTQSPATLSASPGERVTLTCRASRSVRNNVAWYQHKGGQSPRLLIYDASTRAAGVPARFSGSASGTEFTLAISNLESEDFTVYFCLQYNNWWTFGQGTRVDIK
notes: also called CH235.12; CH557_4A/293i
For the molecule B2, the AtheNA signal is 8 relative luminescence units with Histones [10]; 25 relative luminescence units in the test with Centromere B; 4 relative luminescence units with SSA [11]; 2 relative luminescence units with Jo-1; 6 relative luminescence units in the test with RNP (ribonucleoprotein) [12]; 6 relative luminescence units with Sm (Smith antigen) [13].

These data come from patent US10450368 (DUKE UNIVERSITY, dated 2019).
